Measured values taken from the DeepSol protein solubility set.

Assay: soluble on expression in E. coli; label from the status in PepcDB or PDB records

Sequence	soluble on expression in E. coli
MKRLLLYVHFNKYNRVSSHVVYQLTQMRSLFSKVIFISNSQVADADVKMLREKHLIDDFIQRQNSGFDFAAWRDGMVFVGFDELVTYDSVTTMNDTCFGPLWEMYSIYQEFETKTTVDFWGLTNNRATKSFREHIQSYFISFKASVLRSTAFRDFWENIKEYQDVQKVIDQYETKVTTTLLDAGFQYDVVFDTTKEDASHMLHADFSYYNPTAILNHRVPFIKVKAIDNNQHITPYLLNDIQKNSTYPIDLIVSHMSEINYPDFSYLLGHKYVKKRERVDLKNQKAAVHLHVFYVDLLEEFLTAFKQFHFSYDLFITTDSDDKKAEIEEILSANSQEAQVFVTGNIGRDVLPMLKLKNYLSTYDFVGHFHTKKSKEADFWAGQSWREELIDMLVKPADNILAQLQQNPKIGLVIADMPTFFRYNKIVDAWNEHLIAPEMNTLWQKMGMTKKIDFNAFHTFVMSYGTFVWFKYDALKPLFDLNLTDDDVPEEPLPQNSILHAIERLLIYIAWNEHYDFRISLEHHHHHH	not soluble
MKRMIVRMTLPLLIVCLAFSSFSASARAASEEKYWDHWIERHAQPLDASNASNKDLRFLKKVLKGKRIVQLGETTHGAGEINATKVRMIKYLHEELGYDVLAFESGFPDTNASYLNMDQLTPKSTMKNSIYAVWHTEDVVELFDYMKEQKEKGDPLILTGFDIQSMKNSFNVAATQWVKAVDPEKAELLSQSENDFSTLVTDSNTFDEFSQKKEKLVKNYQKLIKFTKTHASELKENLPKEPKAYEMFMHSLQLRIDVMETYMLEEMKEKLEEYPENIEDFSFFMRDRMMAEQFQWVADTLYPKKKIIVWGHNYHLRKQNTKMIKDWVQLNGPNMGDYLPERLKKQTYTIGIYAYSGASLDSSDNKTVKPVTSPPPSGSLEALLKAADRPAVFVDFLHTKNKKGTSWMYTPRTALYWGYMEEQMILKEQYDGVIWLEHITPSVIIKLEHHHHHH	not soluble
MKRPDYRTLQALDAVIRERGFERAAQKLCITQSAVSQRIKQLENMFGQPLLVRTVPPRPTEQGQKLLALLRQVELLEEEWLGDEQTGSTPLLLSLAVNADSLATWLLPALAPVLADSPIRLNLQVEDETRTQERLRRGEVVGAVSIQHQALPSCLVDKLGALDYLFVASKPFAERYFPNGVTRSSLLKAPAVAFDHLDDMHQAFLQQNFDLPPGSVPCHIVNSSEAFVQLARQGTTCCMIPHLQIEKELESGELINLTPGLLQRRMLYWHRFAPESRMMRKVTDALLEYGHKVLRQD	not soluble
MKRRRKSGEKVQMHRFALPLCYGSEAPYYYYEVAPHEREERFHLTSELCVMDDEHYFIRGCLEIPIIDYHENFIWTVWVSLSKESYDEVLEKWDERGRENSDPYFGWLSVEMPVYPETLNLKTNVHIREVGTAPYVELEPTEHPLAIEQRNGITLERVKEIQEMIQRHS	not soluble
MKRSNTVRLVVSKEQHEVLKRLGIATAKCWNEVNWLRMKQYKEGKRVDFGITEKAVYEKYKSVLRVNAQQVARKNAEDWRSFFSLTREKKEGKLPSWFKPRPPGYWKDGRLIVIIRNDRYTVDERNRVVYLKDFNLSLKFKGRLKWHGKQGRLEIIYDEARKIWYAHIPVEVETEKVKEGIKASIDLGIVNLATVYVEDGSWYLFKGGSALSHYENYSKRITIVQKTLHRHRQRRSRRLKLLHEKRSRFLKHALNSMVRRIMEILREKNVGEVVVGYPKEIAKHHGNKLTVNFWNYSYIIKRLEDIGEELGIKVITVDEAYTSKTCSLCGEAHEDGRVKRGLFVCPRTRKAINADLNGAINILHIPESRGSEGNFHRGIGVIGLKTQPVTLSDLSKIKNHYNYSISDYTILHYIQPLEHHHHHH	soluble
MKRVISKILKKEKEKEEEVEEKTIGLIIDGPNILRKEFGIKLEDIKKALEKIGKIRVAKVVLNQYAPQGLIEAVVNQGFEPIIVAGDTDVRVAIEAMELIYNTDVDVIALATRDADFLPLISEAKRKGKETVVIGVEPGFSVALQNAADYIIKMEKKKEAEGY	soluble
MKRYSTKHFKRILIANNVNIDIDLKTGIVAKNMAKKEKIEQVISMGGIMWEGLNSSLIKVDEALLKQQI	soluble
MKSALSLLGERQQSLLTALLHHRKGLTVEELSSLLTISRNAVNQHLTHLGSSGFIQSALQESTGGRPGRVYTLTPNGLELFQRRYSFLAKLLLSWIDKNMGEHELDVCLTELGKEMASGLEHRLTQHTSRSDKLQEAITIMSELGYDTEIYRISENQAEIVANNCVFQELAQQHQEFCKLDISFLKHLLKADIEHTECIVRNGKYCRFRITSPDESGS	not soluble
MKSATSAQRPYQEVGAMIRDLIIKTPYNPGERLPPEREIAEMLDVTRTVVREALIMLEIKGLVEVRRGAGIYVLDNSGSQNTDSPDANVCNDAGPFELLQARQLLESNIAEFAALQATREDIVKMRQALQLEERELASSAPGSSESGDMQFHLAIAEATHNSMLVELFRQSWQWRENNPMWIQLHSHLDDSLYRKEWLGDHKQILAALIKKDARAAKLAMWQHLENVKQRLLEFSNVDDIYFDGYLFDSWPLDKVDA	soluble
MKSIVGVYETPQETIAAIEGLLTKGYDSDDISVVTSRRDTDYLESRTGTEVNQAIDAHQDESESFFDKLKDYFTMDDTATHSKALSDLDIKTDEIDKYQEDLDDGKLLVAVDTDADVIAPIDNGNALSGGFSSTNELDYTTKEEKTMPLREEQLKVDKEDVQTGEVEIGKEVKTEKRDMDIPVRHDEIYVERRPVDENKTDAAPVNDSEEIRVPIVEEKLEVTKKPVVTDEVVVGKRTVEENEHISETVKKEEPRLNKEGKVDGLDDDPLNNQMKIIDRQPKNLKSLEHHHHHH	soluble
MKSKKILIVGAGFSGAVIGRQLAEKGHQVHIIDQRDHIGGNSYDARDSETNVMVHVYGPHIFHTDNETVWNYINKHAEMMPYVNRVKATVNGQVFSLPINLHTINQFFSKTCSPDEARALIAEKGDSTIADPQTFEEQALRFIGKELYEAFFKGYTIKQWGMQPSELPASILKRLPVRFNYDDNYFNHKFQGMPKCGYTQMIKSILNHENIKVDLQREFIVDERTHYDHVFYSGPLDAFYGYQYGRLGYRTLDFKKFIYQGDYQGCAVMNYCSVDVPYTRITEHKYFSPWEQHDGSVCYKEYSRACEENDIPYYPIRQMGEMALLEKYLSLAENETNITFVGRLGTYRYLDMDVTIAEALKTAEVYLNSLTDNQPMPVFTVSVGHHHHHH	soluble
MKSLEEKTIAKEQIFSGKVIDLYVEDVELPNGKASKREIVKHPGAVAVLAVTDEGKIIMVKQFRKPLERTIVEIPAGKLEKGEEPEYTALRELEEETGYTAKKLTKITAFYTSPGFADEIVHVFLAEELSVLEEKRELDEDEFVEVMEVTLEDALKLVESREVYDAKTAYAIQYLQLKEALQAQK	not soluble
MKTALLLKTKSQPFDPYVEAFEKYGRDTAFIPVLRHKRVHEEQLRDKLKNVRKTYCGLIVTSQRVSETLDEALKQEDETERQKILMETPIFTVGPATDDSIRRLGFQQTHGKDCGRGEVLADLIEEWYTTTKQHKPLLFLVGEKHRDIIQRKLGDDRVDSLIVYATQELENTETQIKDTIRKHPTIDWIVAFSPTSICSLLNTFELKIATIGPTTGDYLKKLGTQPNVVSPAPNPESLASSIVAFDEENSS	soluble
MKTCYYELLGVETHASDLELKKAYRKKALQYHPDKNPDNVEEATQKFAVIRAAYEVLSDPQERAWYDSHKEQILNDTPPSTDDYYDYEVDATVTGVTTDELLLFFNSALYTKIDNSAAGIYQIAGKIFAKLAKDEILSGKRLGKFSEYQDDVFEQDINSIGYLKACDNFINKTDKLLYPLFGYSPTDYEYLKHFYKTWSAFNTLKSFSWKDEYMYSKNYDRRTKREVNRRNEKARQQARNEYNKTVKRFVVFIKKLDKRMKEGAKIAEEQRKLKEQQRKNELNNRRKFGNDNNDEEKFHLQSWQTVKEENWDELEKVYDNFGEFENSKNDKEGEVLIYECFICNKTFKSEKQLKNHINTKLHKKNMEEIRKEMEEENITLGLDNLSDLEKFDSADESVKEKEDIDLQALQAELAEIERKLAESSSEDESEDDNLNIEMDIEVEDVSSDENVHVNTKNKKKRKKKKKAKVDTETEESESFDDTKDKRSNELDDLLASLGDKGLQTDDDEDWSTKAKKKKGKQPKKNSKSTKSTPSLSTLPSSMSPTSAIEVCTTCGESFDSRNKLFNHVKIAGHAAVKNVVKRKKVKTKRI	not soluble
